# Positions count from the first letter of the chain named.
# T1: hFR3^D2Fc (human, UniProt P22607 143-250)
# T1 construct: Only domain 2 of the entry stood in the assay; also called product of pChFR3^D2Fc; not shown: human Fc
# T1 sequence: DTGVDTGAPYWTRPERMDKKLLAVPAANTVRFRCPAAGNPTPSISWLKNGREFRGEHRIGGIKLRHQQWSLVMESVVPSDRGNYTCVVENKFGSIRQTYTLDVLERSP
# T2: FR1exFc (UniProt P11362 22-376, limits assumed)
# T2 construct: extracellular domain; also called FGFR1/Fc; FR1/Fc; not shown: Fc part; the construct of FR1exFc is not described
# T2 sequence (looked up): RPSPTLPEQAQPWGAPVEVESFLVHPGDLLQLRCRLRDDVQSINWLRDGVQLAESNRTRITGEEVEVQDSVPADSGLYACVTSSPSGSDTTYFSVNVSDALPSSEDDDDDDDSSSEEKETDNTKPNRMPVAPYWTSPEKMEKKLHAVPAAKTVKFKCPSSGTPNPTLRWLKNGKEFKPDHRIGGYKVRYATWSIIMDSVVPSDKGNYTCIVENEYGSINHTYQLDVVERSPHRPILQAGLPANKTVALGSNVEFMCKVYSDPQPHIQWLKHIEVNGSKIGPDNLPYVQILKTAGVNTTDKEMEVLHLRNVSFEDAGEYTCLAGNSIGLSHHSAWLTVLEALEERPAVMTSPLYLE
# B1: MSPRO26 (Fab, V domains shown)
# VH: QVQLVQSGAEVKKPGASVKVSCKASGYTFTSYYMHWVRQAPGQGLEWMGWINPNSGGTNYAQKFQGRVTMTRDTSISTAYMELSSLRSEDTAVYYCARGYWYAYFTYINYGYFDNWGQGTLVTVSS
# VL: DIALTQPASVSGSPGQSITISCTGTSSDVGGYNYVSWYQQHPGKAPKLMIYDVSNRPSGVSNRFSGSKSGNTASLTISGLQAEDEADYYCQSYDNNSDVVFGGGTKLTVLG
# B2: MSPRO11 (Fab, V domains shown)
# VH: QVQLVQSGAEVKKPGASVKVSCKASGYTFTSYYMHWVRQAPGQGLEWMGWINPNSGGTNYAQKFQGRVTMTRDTSISTAYMELSSLRSEDTAVYYCARYYGSSLYHYVFGGFIDYWGQGTLVTVSS
# VL: DIALTQPASVSGSPGQSITISCTGTSSDVGGYNYVSWYQQHPGKAPKLMIYDVSNRPSGVSNRFSGSKSGNTASLTISGLQAEDEADYYCQSHHFYEVFGGGTKLTVLG
# B3: MSPRO24 (Fab, V domains shown)
# VH: QVQLVQSGAEVKKPGSSVKVSCKASGGTFSSYAISWVRQAPGQGLEWMGGIIPIFGTANYAQKFQGRVTITADESTSTAYMELSSLRSEDTAVYYCARVNHWTYTFDYWGQGTLVTVSS
# VL: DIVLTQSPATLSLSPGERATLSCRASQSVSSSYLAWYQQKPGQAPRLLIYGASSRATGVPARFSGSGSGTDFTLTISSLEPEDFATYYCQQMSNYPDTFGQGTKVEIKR
# B4: MSPRO28 (Fab, V domains shown)
# VH: QVQLVQSGAEVKKPGSSVKVSCKASGGTFSSYAISWVRQAPGQGLEWMGGIIPIFGTANYAQKFQGRVTITADESTSTAYMELSSLRSEDTAVYYCARGGGWVSHGYYYLFDLWGQGTLVTVSS
# VL: DIQMTQSPSSLSASVGDRVTITCRASQGISSYLAWYQQKPGKAPKLLIYAASSLQSGVPSRFSGSGSGTDFTLTISSLQPEDFAVYYCFQYGSIPPTFGQGTKVEIKR
# B5: MSPRO12 (Fab, V domains shown)
# VH: QVQLKESGPALVKPTQTLTLTCTFSGFSLSTSGVGVGWIRQPPGKALEWLALIDWDDDKYYSTSLKTRLTISKDTSKNQVVLTMTNMDPVDTATYYCARYHSWYEMGYYGSTVGYMFDYWGQGTLVTVSS
# VL: DIELTQPPSVSVAPGQTARISCSGDALGDKYASWYQQKPGQAPVLVIYDDSDRPSGIPERFSGSNSGNTATLTISGTQAEDEADYYCQSYDFDFAVFGGGTKLTVLG
# notes: HuCAL Fab, framework VH2_L3
# B6: MS-Pro-26-dHLX-MH (Fab, V domains shown)
# VH: B1 VH
# VL: B1 VL
# notes: Fab mini-antibody format Fab-dHLX-MH, a dimer of the Fab monomer; also called MSPRO26 dimeric dHLX format; Fab-dHLX
# B7: MSPRO59 (Fab, V domains shown)
# VH: QVQLQQSGPGLVKPSQTLSLTCAISGDSVSSNSAAWNWIRQSPGRGLEWLGRTYYRSKWYNDYAVSVKSRITINPDTSKNQFSLQLNSVTPEDTAVYYCARSYYPDFDYWGQGTLVTVSS
# VL: DIELTQPPSVSVAPGQTARISCSGDALGDKYASWYQQKPGQAPVLVIYDDSDRPSGIPERFSGSNSGNTATLTISGTQAEDEADYYCQSYDGPDLWVFGGGTKLTVLG
# notes: HuCAL Fab, framework VH6_L3
# B8: MSPRO54 (Fab, V domains shown)
# VH: QVQLVQSGAEVKKPGASVKVSCKASGYTFTSYYMHWVRQAPGQGLEWMGWINPNSGGTNYAQKFQGRVTMTRDTSISTAYMELSSLRSEDTAVYYCARNMAYTNYQYVNMPHFDYWGQGTLVTVSS
# VL: B5 VL with F92Y, D93F, F94K, A95L
# B9: MSPRO55 (Fab, V domains shown)
# VH: QVQLVQSGAEVKKPGASVKVSCKASGYTFTSYYMHWVRQAPGQGLEWMGWINPNSGGTNYAQKFQGRVTMTRDTSISTAYMELSSLRSEDTAVYYCARSMNSTMYWYLRRVLFDHWGQGTLVTVSS
# VL: B1 VL with N95M, N96Y, S97N, D98Y, V99I
# B10: MS-Pro-11-dHLX-MH (Fab, V domains shown)
# VH: B2 VH
# VL: B2 VL
# notes: Fab mini-antibody format Fab-dHLX-MH, a dimer of the Fab monomer; also called MSPRO11 Fab-dHLX
# B11: MS-Pro-24-dHLX-MH (Fab, V domains shown)
# VH: B3 VH
# VL: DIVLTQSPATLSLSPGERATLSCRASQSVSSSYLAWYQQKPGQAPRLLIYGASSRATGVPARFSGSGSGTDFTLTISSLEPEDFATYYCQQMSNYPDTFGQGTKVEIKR
# notes: Fab mini-antibody format Fab-dHLX-MH, a dimer of the Fab monomer; also called MSPRO24 Fab-dHLX
# B12: MS-Pro-28-dHLX-MH (Fab, V domains shown)
# VH: B4 VH
# VL: B4 VL
# notes: Fab mini-antibody format Fab-dHLX-MH, a dimer of the Fab monomer; also called MSPRO28 Fab-dHLX
# Target: T1, hFR3^D2Fc
# Assay: ELISA, Fc fusion anchored on an anti-human Fc coated plate, bound Fab detected with HRP anti-human Fab
# Text: Constructs comprising cDNAs that code for segments of the extracellular domain of FGFR3 were generated (FIG. 10). D2 comprises Ig domain 2, D2-3 comprises Ig domains 2 and 3, and D1-3 comprises Ig domains 1, 2 and 3. These constructs include pChFR3^D2Fc that codes for Ig-like domain 2 of FGFR3 and pChFR3^{D2,3}Fc that codes for domain 2 and 3, both as human Fc fusions. The corresponding chimeric proteins, as well as the control hFR3exFc (containing domains 1, 2 and 3) were anchored to an ELISA plate coated with a human Fc antibody. A panel of 8 best Fabs, MSPRO2, 11, 12, 21, 24, 26, 28 and 29, were added, and bound Fab was determined with HRP-α human Fab (FIG. 11). […] Both bind to the Ig like domain 2 while the others require domain 3 for binding. It was then tested whether or not Fabs that belong to the second group would distinguish the FGFR3IIIc isoform from the FGFRIIIb from. FDCP-FR3IIIb or FDCP-FR3IIIc cells were incubated in the presence of 1.25 ng/ml FGF9 with increasing doses of either MSPRO12 or MSPRO29. Ly6.3 was included as control. After 2 days in culture, cell proliferation was measured with the XTT reagent. Clearly, MSPRO29 (open triangle) was completely ineffective against the IIIb isoform (FIG. 12).
row,binding result,Binder
1,no binding,B1
2,no binding,B2
3,no binding,B3
4,no binding,B4

# Target: T3, FR3exFc (human)
# T3 construct: also called FGFR3/Fc; FR3/Fc
# Assay: BIAcore; number in parentheses taken as the monomeric Fab
# Description: (§1) The affinity measurements were performed by BIACORE® analysis according to the standard procedure recommended by the supplier (Pharmacia). The anti-Fc antibody was coupled via the EDC/NHS chemistry to the chip and subsequently FGFR3 was captured. The Fabs of the invention were then bound to this surface.
# T3 sequence (chain, as listed by the source limits assumed): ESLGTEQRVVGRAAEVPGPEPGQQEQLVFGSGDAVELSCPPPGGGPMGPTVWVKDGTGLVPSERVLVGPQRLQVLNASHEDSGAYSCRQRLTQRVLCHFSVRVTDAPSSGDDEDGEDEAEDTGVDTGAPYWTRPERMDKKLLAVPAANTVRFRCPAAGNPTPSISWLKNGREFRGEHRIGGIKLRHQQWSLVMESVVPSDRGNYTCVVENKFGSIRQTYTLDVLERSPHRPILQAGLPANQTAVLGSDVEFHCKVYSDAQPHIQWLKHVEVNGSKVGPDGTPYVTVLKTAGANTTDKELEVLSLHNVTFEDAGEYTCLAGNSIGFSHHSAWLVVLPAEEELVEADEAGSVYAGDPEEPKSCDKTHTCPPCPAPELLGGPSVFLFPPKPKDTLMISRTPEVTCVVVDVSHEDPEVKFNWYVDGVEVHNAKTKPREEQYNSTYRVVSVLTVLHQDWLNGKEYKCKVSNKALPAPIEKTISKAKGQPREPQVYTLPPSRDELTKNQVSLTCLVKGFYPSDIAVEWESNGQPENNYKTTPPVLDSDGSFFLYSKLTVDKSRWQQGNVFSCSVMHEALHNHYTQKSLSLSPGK
row,Kd [nM],Binder
1,14,B5
2,4,B1
3,4,B2
4,10,B3
5,9,B4

# Target: T4, FGFR3 (wild type) on cells (human, UniProt P22607 23-806)
# Assay: cell-based or functional assay
# T4 sequence (P22607 23-806 limits assumed): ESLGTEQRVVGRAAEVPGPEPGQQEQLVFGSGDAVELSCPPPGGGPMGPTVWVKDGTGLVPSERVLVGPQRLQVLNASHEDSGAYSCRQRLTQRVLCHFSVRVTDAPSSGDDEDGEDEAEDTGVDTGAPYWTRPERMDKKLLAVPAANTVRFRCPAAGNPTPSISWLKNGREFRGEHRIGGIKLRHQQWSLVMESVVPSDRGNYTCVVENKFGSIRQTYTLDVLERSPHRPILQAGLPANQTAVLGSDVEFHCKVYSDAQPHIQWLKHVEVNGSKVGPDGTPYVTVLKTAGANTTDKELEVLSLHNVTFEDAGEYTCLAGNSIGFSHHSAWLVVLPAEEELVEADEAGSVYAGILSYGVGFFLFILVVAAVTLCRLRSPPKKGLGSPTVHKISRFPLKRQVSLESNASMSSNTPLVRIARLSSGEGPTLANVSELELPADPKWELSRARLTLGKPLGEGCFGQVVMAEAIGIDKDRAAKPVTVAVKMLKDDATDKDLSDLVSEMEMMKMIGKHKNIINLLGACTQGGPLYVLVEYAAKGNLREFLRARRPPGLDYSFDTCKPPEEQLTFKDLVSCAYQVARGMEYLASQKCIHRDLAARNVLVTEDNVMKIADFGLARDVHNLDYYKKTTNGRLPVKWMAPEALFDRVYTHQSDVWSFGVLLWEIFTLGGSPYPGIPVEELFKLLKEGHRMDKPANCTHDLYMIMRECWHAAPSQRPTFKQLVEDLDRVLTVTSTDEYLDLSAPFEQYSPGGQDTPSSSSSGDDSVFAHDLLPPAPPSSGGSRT
"IC50, FDCP-FGFR3 proliferation assay with FGF9, monomeric Fab (in parentheses) [nM]","IC50, FDCP-FGFR3 proliferation assay with FGF9, dimeric dHLX format [nM]",Binder
58,,B5
,8,B6
70,,B1

# Target: T4, FGFR3 (wild type) on cells
# Assay: FACS
row,Kd [nM],Binder
1,< 1,B7
2,6.5,B5
3,1.4,B1
4,4,B2
5,0.3,B4

# Target: T3, FR3exFc
# Assay: BIACORE
# Description: as §1
row,koff [s⁻¹],Binder
1,0.00071,B7
2,0.002,B8
3,0.00074,B9
4,0.0023,B5
5,0.0005,B1
6,0.0004,B2
7,0.0054,B3
8,0.004,B4

# Target: T4, FGFR3 (wild type) on cells
# Assay: cell-based or functional assay
# Remark: another data set of the same source
row,"IC50 FR3 (FGF9), FDCP-FGFR3 proliferation assay [nM]",Binder
1,19,B7
2,45,B8
3,34,B9
4,58,B5
5,70,B1
6,220,B2
7,70,B3
8,50,B4

# Target: T4, FGFR3 (wild type) on cells
# Assay: indirect FACS-Scatchard
row,Kd [nM],Binder
1,6.5,B5
2,1.4,B1
3,4,B2
4,0.3,B3
5,0.3,B4

# Target: T3, FR3exFc
# Assay: BIAcore, Fab-dHLX-MH miniantibody
row,Kd [nM],Binder
1,2,B6
2,0.7,B10
3,2,B11
4,1.6,B12

# Target: T3, FR3exFc
# Assay: BIACORE, FGFR3 captured on an anti-Fc chip
# Description: as §1
row,Kd [nM],Binder
1,1.5,B7
2,3.7,B8
3,2.9,B9
4,14,B5
5,4,B1
6,4,B2
7,10,B3
8,9,B4

# Target: T3, FR3exFc
# Assay: BIACORE, FGFR3 captured on an anti-Fc chip
# Remark: another data set of the same source
# Description: as §1
row,Kd [nM],Binder
1,14,B5
2,4,B1
3,4,B2
4,10,B3
5,9,B4

# Target: T2, FR1exFc
# Assay: Affinity to FGFR1 (BIACORE and/or FACS)
row,Kd [nM],Binder
1,2.5,B8
2,32,B1
3,160,B4

# — US20090202547A1 (FIBRON, published 2009)
